The target in assay [1] is Full-length PKD2 (WT) (human) (UniProt Q13563). Kind of assay: SEC; channel proteins solubilised in DDM, Strep-Tactin affinity purified, reconstituted in amphipol A8-35, MBP cleaved by TEV; SEC at 4°C on Superdex 200 10/300 GL in 25 mM HEPES pH 7.4, 150 mM NaCl, 1 mM TCEP, 1 mM CaCl2; FSEC (Superose 6 5/150 GL, tryptophan fluorescence) after heating.
For assay [2], the target named is PKD2 R803X Taiwan founder truncation variant (human) (UniProt Q13563). The assay is described as above.

The stoichiometry N is a count of units in the complex or per binding partner. “Full-length PKD2 (WT) (from UniProt Q13563 1-968) (natural protein)”: in assay [1], the stoichiometry N was 4. Substance “PKD2 R803X Taiwan founder truncation variant (from UniProt Q13563 1-802) (domain or fragment)” gave a stoichiometry N in assay [2] of 4.
